# Tests used:
# [1] = biological target: T1, human CD40 extracellular domain with C-terminal His-AviTag (human, UniProt P25942 21-193); assay: SPR, antibody captured, CD40 ECD analyte;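 further: biacore SPR at 25 °C in PBS-T pH 7.4, CD40 ECD analyte from 300 nM in 1:3 series, 300 s association, up to 1200 s dissociation, double-referenced, Langmuir 1:1 fit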
# T1 construct: not shown: C-terminal His-AviTag
# [2] = biological target: T2, human CD40 expressed on cells (human, UniProt P25942 21-277); assay: flow cytometry, Raji cells;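 further: cell binding of antibodies to Raji cells detected by flow cytometry using an Alexa488-labelled anti-human IgG secondary antibody, primary incubation 1 h at 4 °C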
# T2 construct: also called huCD40; Raji cells
# Experimental: CD40 positive cells (Raji cells) were detatched from the culture bottle using Trypsin and were counted using a Casy cell counter. After pelleting at 4° C., the cells were resuspended in FACS Buffer (2.5% FCS in PBS), adjusted to 2.0E+06 cells/mL, and dispensed to 96-well PP V-bottom-plates (25 μL/well=5.0E+04Zellen/well).
# The CD40 specific antibodies were adjusted to 20 μg/mL in FACS buffer, resulting in a final concentration of 10 μg/mL. 20 μl were added to 25 μl cell suspension and incubated for 1 h at 4° C. The cells were then washed twice in FACS buffer. After washing, the cells were resuspended in 50 μL FACS-buffer containing secondary antibody (<huIgG>-Alexa488, c=10 μg/mL) and incubated 1 h bei 4° C. The cells were then washed twice in FACS buffer and resuspended in 70 μl/well FACS buffer for measurement using a FACS Canto (BD, Pharmingen).
Binder,Kd [1] [nM],koff [1] [s⁻¹],kon [1] [M⁻¹ s⁻¹],EC50 [2] [µg/mL]
"P1AE0400, humanized anti-CD40 antibody VH2a/VL2a, huIgG1_LALA_PG (antibody, V domains shown, also called VL2a/VH2a) VH: EVQLLESGGGLVQPGGSLRLSCAASGYSFTGYYIHWVRQAPGKGLEWVGRVIPNAGGTSYNQKFKGRFTISVDNSKNTAYLQMNSLRAEDTAVYYCAREGIYWWGQGTTVTVSS VL: DIQMTQSPSSLSASVGDRVTITCRSSQSLVHSNGNTFLHWYQQKPGKAPKLLIYTVSNRFSGVPSRFSGSGSGTDFTLTISSLQPEDFATYFCSQTTHVPWTFGGGTKVEIKR",4.2,0.00699,1.68e+06,0.12
"P1AE0404, humanized anti-CD40 antibody VH2a/VL2b, huIgG1_LALA_PG (antibody, V domains shown, huIgG1 with effector silent Fc (P329G, L234A, L235A); also called VL2b/VH2a) VH: EVQLLESGGGLVQPGGSLRLSCAASGYSFTGYYIHWVRQAPGKGLEWVGRVIPNAGGTSYNQKFKGRFTISVDNSKNTAYLQMNSLRAEDTAVYYCAREGIYWWGQGTTVTVSS VL: DIQMTQSPSSLSASVGDRVTITCRSSQSLVHSNGNTFLHWYQQKPGQSPKLLIYTVSNRFSGVPSRFSGSGSGTDFTLTISSLQPEDFATYFCSQTTHVPWTFGGGTKVEIK",4.2,0.00693,1.63e+06,0.11
"P1AE0403, humanized anti-CD40 antibody VH2d/VL2a, huIgG1_LALA_PG (antibody, V domains shown, also called VL2a/VH2d) VH: EVQLLESGGGLVQPGGSLRLSCAASGYSFTGYYIHWVRQAPGKGLEWVGRVIPNAGGTSYGDSVKGRFTISVDNSKNTAYLQMNSLRAEDTAVYYCAREGIYWWGQGTTVTVSS VL: DIQMTQSPSSLSASVGDRVTITCRSSQSLVHSNGNTFLHWYQQKPGKAPKLLIYTVSNRFSGVPSRFSGSGSGTDFTLTISSLQPEDFATYFCSQTTHVPWTFGGGTKVEIKR",29,0.0407,1.4e+06,0.12
"P1AE0407, humanized anti-CD40 antibody VH2d/VL2b, huIgG1_LALA_PG (antibody, V domains shown, huIgG1 with effector silent Fc (P329G, L234A, L235A); also called VL2b/VH2d) VH: EVQLLESGGGLVQPGGSLRLSCAASGYSFTGYYIHWVRQAPGKGLEWVGRVIPNAGGTSYGDSVKGRFTISVDNSKNTAYLQMNSLRAEDTAVYYCAREGIYWWGQGTTVTVSS VL: DIQMTQSPSSLSASVGDRVTITCRSSQSLVHSNGNTFLHWYQQKPGQSPKLLIYTVSNRFSGVPSRFSGSGSGTDFTLTISSLQPEDFATYFCSQTTHVPWTFGGGTKVEIK",30,0.0355,1.19e+06,0.12

# Second part, the binder after the results:
Kd [1] [nM],koff [1] [s⁻¹],kon [1] [M⁻¹ s⁻¹],EC50 [2] [µg/mL],Binder
2.7,0.00681,2.56e+06,0.08,"P1AE1001, humanized anti-CD40 antibody VH1a/VL1b, huIgG1_LALA_PG (antibody, V domains shown, huIgG1 with effector silent Fc (P329G, L234A, L235A)) VH: QVQLVQSGAEVKKPGASVKVSCKASGYSFTGYYIHWVRQAPGQSLEWMGRVIPNAGGTSYNQKFKGRVTLTVDKSISTAYMELSRLRSDDTAVYYCAREGIYWWGQGTTVTVSS VL: DIVVTQTPLSLSVTPGQPASISCRSSQSLVHSNGNTFLHWYLQKPGQSPQLLIYTVSNRFSGVPDRFSGSGSGTDFTLKISRVEAEDVGVYFCSQTTHVPWTFGGGTKVEIK"
3.3,0.00896,2.7e+06,0.12,"P1AE0998, humanized anti-CD40 antibody VH1c/VL1d, huIgG1_LALA_PG (antibody, V domains shown, huIgG1 with effector silent Fc (P329G, L234A, L235A)) VH: QVQLVQSGAEVKKPGASVKVSCKASGYSFTGYYIHWVRQAPGQSLEWMGRVIPNAGGTSYNQKFKGRVTLTVDKSISTAYMELSRLRSDDTAVYYCAREGIYWWGHGTTVTVSS VL: DVVVTQTPLSLSVTPGQPASISCRSSQSLVHSNGNTFLHWYLQKPGQSPQLLIYTVSNRFSGVPDRFSGSGSGTDFTLKISRVEAEDVGVYFCSQTTHVPWTFGGGTKLEIK"
4.2,0.00709,1.67e+06,0.09,"P1AE0406, humanized anti-CD40 antibody VH2c/VL2b, huIgG1_LALA_PG (antibody, V domains shown, huIgG1 with effector silent Fc (P329G, L234A, L235A); also called VL2b/VH2c) VH: EVQLLESGGGLVQPGGSLRLSCAASGYSFTGYYIHWVRQAPGKGLEWVGRVIPNAGGTSYNQKFKGRFTISVDNSKNTAYLQMNSLRAEDTAVYYCAREGIYWWGHGTTVTVSS VL: DIQMTQSPSSLSASVGDRVTITCRSSQSLVHSNGNTFLHWYQQKPGQSPKLLIYTVSNRFSGVPSRFSGSGSGTDFTLTISSLQPEDFATYFCSQTTHVPWTFGGGTKVEIK"
4.6,0.00787,1.69e+06,0.13,"P1AE0401, humanized anti-CD40 antibody VH2b/VL2a, huIgG1_LALA_PG (antibody, V domains shown, huIgG1 with effector silent Fc (P329G, L234A, L235A); also called VL2a/VH2b) VH: EVQLLESGGGLVQPGGSLRLSCAASGYSFTGYYIHWVRQAPGKSLEWVGRVIPNAGGTSYNQKFKGRFTISVDNSKNTAYLQMNSLRAEDTAVYYCAREGIYWWGQGTTVTVSS VL: DIQMTQSPSSLSASVGDRVTITCRSSQSLVHSNGNTFLHWYQQKPGKAPKLLIYTVSNRFSGVPSRFSGSGSGTDFTLTISSLQPEDFATYFCSQTTHVPWTFGGGTKVEIK"
5.1,0.00814,1.61e+06,0.09,"P1AE0405, humanized anti-CD40 antibody VH2b/VL2b, huIgG1_LALA_PG (antibody, V domains shown, huIgG1 with effector silent Fc (P329G, L234A, L235A); also called VL2b/VH2b) VH: EVQLLESGGGLVQPGGSLRLSCAASGYSFTGYYIHWVRQAPGKSLEWVGRVIPNAGGTSYNQKFKGRFTISVDNSKNTAYLQMNSLRAEDTAVYYCAREGIYWWGQGTTVTVSS VL: DIQMTQSPSSLSASVGDRVTITCRSSQSLVHSNGNTFLHWYQQKPGQSPKLLIYTVSNRFSGVPSRFSGSGSGTDFTLTISSLQPEDFATYFCSQTTHVPWTFGGGTKVEIK"
4.2,0.00709,1.67e+06,0.13,"P1AE0402, humanized anti-CD40 antibody VH2c/VL2a, huIgG1_LALA_PG (antibody, V domains shown, huIgG1 with effector silent Fc (P329G, L234A, L235A); also called VL2a/VH2c) VH: EVQLLESGGGLVQPGGSLRLSCAASGYSFTGYYIHWVRQAPGKGLEWVGRVIPNAGGTSYNQKFKGRFTISVDNSKNTAYLQMNSLRAEDTAVYYCAREGIYWWGHGTTVTVSS VL: DIQMTQSPSSLSASVGDRVTITCRSSQSLVHSNGNTFLHWYQQKPGKAPKLLIYTVSNRFSGVPSRFSGSGSGTDFTLTISSLQPEDFATYFCSQTTHVPWTFGGGTKVEIK"

# Reference: patent US20250320305A1 (Hoffmann-La Roche, published 2025)
